Data set [1] in a line: Body weight change in PAH model. To be noted: MCT + Sildenafil, n = 5.
Description: (§3) To induce PAH in seven-week-old SD rats (Orient Bio), 60 mpk of monocrotaline (MCT) was subcutaneously injected. […] All antibodies were i.v. injected twice a week, and sildenafil was orally administered every day.
The test system of data set [2] is pulmonary arterial hypertension (PAH) models. The data set can be described thus: Echocardiography in PAH model. Format: in vivo, rat. Particulars: MCT PAH rats, five animals per group.
Description: as §3
For data set [3] the test system is unchanged. Description: Blood pressure and cardiac output in monocrotaline PAH model. Format: in vivo, rat. To be noted: MCT + Sildenafil 25 mpk orally every day, 3 weeks. As to the method:
After three weeks, the rats were anesthetized with isoflurane, and measured for blood flow and pressure by using a high-precision pneumatic measurement system (MPVS cardiovascular pressure and volume system, model name: MPVS Ultra, manufacturer: Millar Instruments). The right ventricular end-systolic pressure (RVESP), right ventricular end-diastolic pressure, left ventricular end-systolic pressure, left ventricular end-diastolic pressure were measured using an exclusive catheter (Mikro-Tip rat pressure catheter, manufacturer: Millar Instruments). The cardiac output was measured using a perivascular blood flow probe (Transonic Flow probes, manufacturer: Millar Instruments), and experimental method thereof was performed by the same method as disclosed in the following literature: Pacher P, Nagayama T, Mukhopadhyay P, Batkai S, Kass D A. Measurement of cardiac function using pressure-volume conductance catheter technique in mice and rats. Nat Protoc 2008; 3(9):1422-34.
The models of PAH, which is a disease having a close relation between immune cell invasion and pathological phenomena, were treated with N3 IgG antibody (1 mpk or 10 mpk) for 3 weeks (i.v., twice a week), and then measured for right ventricular end-systolic pressure (RVESP), right ventricular end-diastolic pressure (RVEDP), left ventricular end-systolic pressure (LVESP), left ventricular end-diastolic pressure (LVEDP), and cardiac output (CO).

Data set [4] addresses T1, extracellularly exposed KRS N-terminal region (Homo sapiens, UniProt Q15046).
T1 construct: expressed in transfected cells; host or cells: A549
Description: Immunofluorescence staining of converted IgGs. In kind it is cell-based. To be noted: WT-KRS membrane localization induced by laminin treatment. The method, then:
(§1) Immunofluorescence was performed to investigate whether the scFv clones selected in Example <1-5> actually bound to the KRS N-terminal region exposed on the cell membrane. In order to make a phenomenon in which KRS is exposed on the membrane, KRS-T52D mutant (active mutant) was used. […] After incubation for 24 h, the cells were incubated using serum-free media (RPMI 1640 media) at 37° C. for 1 h. Thereafter, the cells were treated with 10 μg/ml laminin (L2020; Sigma) and then incubated at 37° C. for 1 h.
(§2) The prepared samples were washed with PBS (4° C.), fixed by the treatment with 4% paraformaldehyde for 10 min, and then washed. The samples were blocked with CAS block for 10 min, and treated with the scFv and Myc antibodies for 2 h. Thereafter, the unbound antibodies were washed out, and incubated with secondary antibodies for 1 h in a dark room. DAPI staining was performed for 10 min before mounting.
To investigate whether the IgGs constructed in the present invention actually bound to the region of KRS exposed on the cell membrane, immunofluorescence was performed. Immunofluorescence staining was performed by the same method as described in Example <1-6> by using N3 IgG and N5 IgG as representatives.

The target in a further data set is T2, KRS 1-207 aa (Homo sapiens, UniProt Q15046).
T2 construct: to the antigen (KRS 1-207 aa)
Description: SPR (Biacore 2000) binding of IgGs to immobilized KRS. Particulars: immobilized KRS 185 RU, antibody 6.25-100 nM. As to the method:
The quantitative binding ability of the purified antibody proteins (N3 IgG and N5 IgG) to the antigen (KRS 1-207 aa) were measured using Biacore 2000 SPR (surface plasmon resonance) (GE healthcare, US) biosensor. After KRS was immobilized on a sensor chip (CM5, GE healthcare, US), antibody proteins (6.25-100 nM), which were serially diluted with HES buffer solution (10 mM HEPES, pH 7.4, 150 mM NaCl, 3 mM EDTA, 0.005% surfactant P20), were allowed to flow at a rate of 30 μl/min for 3 min, and 1 M NaCl/20 mM NaOH was allowed to flow at a rate of 30 μl/min for 3 min, thereby inducing the dissociation of proteins bound to the antigen. Mock IgG was used as control. Specific experiment conditions are as follows:
Immobilized level: 185 RU
Antibody: N3 IgG and N5 IgG
Running buffer: HBS-N buffer
Regeneration: 2 M NaCl, 20 mM NaOH (flow 30 ul/min 1 min)
The affinity was obtained from the kinetic rate constants (ka and kd) and equilibrium dissociation constants (KD) by using BIA evaluation ver. 3.2 software. FIGS. 6A-6B show SPR graph results of N3 IgG and N5 IgG, respectively. It was confirmed from FIGS. 6A-6B and Table 3 that N3 IgG and N5 IgG of the present invention has high specific binding ability to the KRS N-terminal region.
For orientation: SPR reads the build-up and loss of mass on a sensor chip optically.

The next data set deals with T3, KRS (Homo sapiens, UniProt Q15046).
T3 construct: endogenous in cells; host or cells: HCT116
Description: Western blotting and immunoprecipitation of converted IgGs. In kind it is binding. To be noted: HCT116 cell lysate. (Immunoblotting shows a protein as a band on a membrane.)

For data set [5], the target named is T4, KRS N-terminal region exposed on the cell membrane (A549 cells, myc-KRS WT/T52D/T52A) (Homo sapiens, UniProt Q15046, T52D).
T4 construct: expressed in transfected cells; host or cells: A549
Description: Immunofluorescence of scFv clones on cells with KRS N-terminal region exposed on the cell membrane. Format: cell-based. Particulars: A549 cells expressing myc-KRS T52D (active), T52A (inactive) or WT-KRS (laminin untreated). The method, then: as §1, §2

For another data set, the target named is T5, KRS N-terminus (Homo sapiens, UniProt Q15046).
T5 construct: a KRS fragment composed of amino acid residues 1-200 in the N-terminus; expressed in transfected cells; host or cells: A549
Description: Western blotting of scFv clones against full-length KRS and KRS fragments. Format: binding. Particulars: full-length KRS, fragment lacking N-terminal aa 1-71, fragment aa 1-200; transformed A549 lysate. An excerpt:
To investigate whether the scFv clones (N3, N5, N7, and N9) finally selected through Example <1-6> actually bound to KRS N-terminus, full-length KRS (denoted by F, SEQ ID NO: 76), a KRS fragment with deletion in amino acids at positions 1-71 in the N-terminus (defined by SEQ ID NO: 1), and a KRS fragment composed of amino acid residues 1-200 in the N-terminus (defined by SEQ ID NO: 2) were used to conduct western blotting.
A549 cells were transformed by the method as described in Example <1-6> using polynucleotides encoding full-length KRS and KRS fragments. Thereafter, the cells were lysed, and western blotting was performed by the same method as described in Example <1-4>.

T4 sequence (Q15046 whole entry T52D): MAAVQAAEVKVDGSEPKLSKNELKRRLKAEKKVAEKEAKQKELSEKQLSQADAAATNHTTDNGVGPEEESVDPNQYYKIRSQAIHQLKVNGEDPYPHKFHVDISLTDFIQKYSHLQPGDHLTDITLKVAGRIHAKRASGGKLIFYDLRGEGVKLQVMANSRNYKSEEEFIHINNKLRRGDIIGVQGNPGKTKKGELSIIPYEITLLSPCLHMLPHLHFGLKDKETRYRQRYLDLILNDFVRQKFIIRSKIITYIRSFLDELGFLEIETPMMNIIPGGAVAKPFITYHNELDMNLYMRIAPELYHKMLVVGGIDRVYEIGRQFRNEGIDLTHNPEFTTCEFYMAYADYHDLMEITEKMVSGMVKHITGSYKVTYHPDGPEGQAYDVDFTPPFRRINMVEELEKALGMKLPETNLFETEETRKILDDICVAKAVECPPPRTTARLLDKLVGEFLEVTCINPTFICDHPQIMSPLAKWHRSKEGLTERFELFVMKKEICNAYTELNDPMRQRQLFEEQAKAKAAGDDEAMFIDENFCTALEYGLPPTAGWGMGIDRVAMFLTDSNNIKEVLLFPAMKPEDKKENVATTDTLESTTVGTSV
T5 sequence (Q15046 1-200): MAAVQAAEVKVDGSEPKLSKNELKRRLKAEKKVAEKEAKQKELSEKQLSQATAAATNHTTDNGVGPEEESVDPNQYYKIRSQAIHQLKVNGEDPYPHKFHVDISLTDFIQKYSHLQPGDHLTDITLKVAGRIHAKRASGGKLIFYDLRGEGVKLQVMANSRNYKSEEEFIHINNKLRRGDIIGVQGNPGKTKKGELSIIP
T2 sequence (Q15046 1-207): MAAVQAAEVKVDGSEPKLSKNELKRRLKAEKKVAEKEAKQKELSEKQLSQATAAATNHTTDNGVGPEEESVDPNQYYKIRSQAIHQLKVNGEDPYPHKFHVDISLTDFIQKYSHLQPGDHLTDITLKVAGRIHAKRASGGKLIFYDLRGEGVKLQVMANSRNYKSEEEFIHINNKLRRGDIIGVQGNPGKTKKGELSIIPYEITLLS
T3 sequence (Q15046 whole entry): as the sequence (Q15046 whole entry T52D) above, with D52T counted along it
T1 sequence (Q15046 whole entry): as the sequence (Q15046 whole entry T52D) above, with D52T counted along it

Turning to `CCCc1nn(C)c2c(=O)[nH]c(-c3cc(S(=O)(=O)N4CCN(C)CC4)ccc3OCC)nc12` [Sildenafil, sildenafil, reference compound], in data set [1], the “body weight, absolute change” value was 104.1 ± 26.4 g and the “body weight, relative change” value stood at 49.8 ± 10.5%. In addition, the “D-shaped left ventricle finding indicating pressure overload in the right ventricle” value in data set [2] is “three”. For the same molecule, the CO in data set [3] (n = 4) stood at 49.6 ± 17.7 mL/min. In addition, in data set [3] (n = 5), the LVEDP is recorded as 3.6 ± 2.3 mmHg, the LVESP worked out at 83.2 ± 4.7 mmHg, the RVEDP came out at 2.6 ± 1.3 mmHg and the RVESP amounted to 48.4 ± 9.6 mmHg.

B1: N5 IgG: IgG converted from N5 scFv; VH SEQ ID NO: 53, VL SEQ ID NO: 55 (antibody, V domains shown)
VH: EVQLLESGGGLVQPGGSLRLSCAASGFTFSDYAMSWVRQAPGKGLEWVSWIYSGSGNKYYADSVKGRFTISRDNSKNTLYLQMNSLRAEDTAVYYCARMGLDFDYWGQGTLVTVSS
VL: QSVLTQPPSASGTPGQRVTISCTGSSSNIGNNYVSWYQQLPGTAPKLLIYDDNQRPSGVPDRFSGSKSGTSASLAISGLRSEDEADYYCGTWDDSLSAYVFGGGTKLTVL
Turning to B1, the “binding to extracellularly exposed KRS N-terminal region (immunofluorescence)” value in data set [4] is “favorably bound specifically”. In the data set with KRS 1-207 aa, this molecule returned a ka of 3.13e+06 M⁻¹ s⁻¹ and a kd of 0.003282 s⁻¹. The “KRS binding ability (western blotting and immunoprecipitation)” value with KRS is “bound to KRS”.

B2: N5 scFv: scFv clone consisting of the amino acid sequence defined by SEQ ID NO: 69 (protein)
scFv: EVQLLESGGGLVQPGGSLRLSCAASGFTFSDYAMSWVRQAPGKGLEWVSWIYSGSGNKYYADSVKGRFTISRDNSKNTLYLQMNSLRAEDTAVYYCARMGLDFDYWGQGTLVTVSSGGGGSGGGGSGGGGSQSVLTQPPSASGTPGQRVTISCTGSSSNIGNNYVSWYQQLPGTAPKLLIYDDNQRPSGVPDRFSGSKSGTSASLAISGLRSEDEADYYCGTWDDSLSAYVFGGGTKLTVL
Take B2: the “binding to membrane-exposed KRS N-terminal region (immunofluorescence)” value in data set [5] was “binding only active mutant cells”. For the same molecule, the “specific binding to KRS N-terminus (western blotting)” value (shortened to “specific binding to KRS N-terminus”) in the data set with KRS N-terminus was “specifically bound to the KRS N-terminus”.

B3: N7 scFv: scFv clone consisting of the amino acid sequence defined by SEQ ID NO: 71 (protein)
scFv: EVQLLESGGGLVQPGGSLRLSCAASGFTFSDYYMSWVRQAPGKGLEWVSGIYSGTGSIYYADSVEGRFTISRDNSKNTLYLQMNSLRAEDTAVYYSARPPYHFDYWGQGTLVTVSSGGGGSGGGGSGGGGSQSVLTQPPSASGTPGQRVTISCTGSSSNIGSNYVTWYQQLPGTAPKLLIYADSNRPSGVPDRFSGSKSGTSASLAISGLRSEDEADYYCGAWDYSLSGYVFGGGTKLTVL
On to B3, for which, in data set [5], the “binding to membrane-exposed KRS N-terminal region (immunofluorescence)” value is given as “binding only active mutant cells”. In the data set with KRS N-terminus, the “specific binding to KRS N-terminus” value is reported as “specifically bound to the KRS N-terminus”.

B4: N9 scFv: scFv clone consisting of the amino acid sequence defined by SEQ ID NO: 73 (protein)
scFv: EVQLLESGGGLVQPGGSLRLSCAASGFTFSNYDMSWVRQAPGKGLEWVSWIYSGDSSKYYADSVKGRFTISRDNSKNTLYLQMNSLRAEDTAVYYSARETRTFDYWGQGTLVTVSSGGGGSGGGGSGGGGSQSVLTQPPSASGTPGQRVTISCTGSSFNIGSNAVYWYQQLPGTAPKLLIYYNSQRPSGVPDRFSGSKSGTSASLAISGLRSEDEADYYCGSWDASLSGYVFGGGTKLTVL
Regarding B4, the “binding to membrane-exposed KRS N-terminal region (immunofluorescence)” value in data set [5] is reported as “binding only active mutant cells”. In addition, the “specific binding to KRS N-terminus” value in the data set with KRS N-terminus is “specifically bound to the KRS N-terminus”.

B5: N3 scFv: scFv clone consisting of the amino acid sequence defined by SEQ ID NO: 67 (protein)
scFv: EVQLLESGGGLVQPGGSLRLSCAASGFTFSSYDMSWVRQAPGKGLEWVSAISYDNGNTYYADSVKGRFTISRDNSKNTLYLQMNSLRAEDTAVYYSARMALDFDYWGQGTLVTVSSGGGGSGGGGSGGGGSQSVLTQPPSASGTPGQRVTISCTGSSSNIGSNYVTWYQQLPGTAPKLLIYDNSNRPSGVPDRFSGSKSGTSASLAISGLRSEDEADYYCASWDDSLSAYVFGGGTKLTVL
Consider B5, for which the “binding to membrane-exposed KRS N-terminal region (immunofluorescence)” value in data set [5] is “binding only active mutant cells”. The “specific binding to KRS N-terminus” value with KRS N-terminus was “specifically bound to the KRS N-terminus”.

The record behind these values is patent publication US11685791B2, “Antibody binding specifically to N-terminal region of lysyl-tRNA synthetase exposed on cell membrane” (Zymedi Co., Ltd., priority 2017, dated 2023).
